Values of other authors as cited in article PMC3633488.

Target: FGF-2 (Homo sapiens) (UniProt P09038)

Substance: perlecan (from UniProt P98160)
- Kd: 70 nM
